Test results from article PMC9588798.

Molecular target: Human IgM heavy (μ) chain of the full-length IgM pentamer from myeloma (human) (UniProt P01871)
Assay: cryo-EM structure; full-length human IgM pentamer without secretory component, 0.25 mg/ml, in PBS; single-particle cryo-EM, 3D variability analysis and focused refinement on subunit 1; models PDB 6KXS, 4JVU and 2AGJ rigidly docked

Substance: Human IgM heavy (μ) chain of the full-length IgM pentamer from myeloma (from UniProt P01871 106-433) (natural protein)
- stoichiometry N: 10
